Laboratory results as given in US20250019448A1 (BIOCOMPLETE, published 2025).

Target: T1, SMO (smoothened) protein (Homo sapiens (Human), UniProt Q99835 28-787)
T1 construct: Endogenous SMO on HCT116 and SKOV3 cancer cells; also called SMO in HCT116 cells; SMO receptor
Experiment: flow cytometry on HCT116 cells, 10 µg antibody, Alexa 594 secondary antibody
Method: The binding affinity of the SMO-binding antibodies in HCT116 colon cancer cells was analyzed by flow cytometry. After blocking the HCT116 cells with BSA for 30 minutes, 10 μg of the SMO-binding antibody was bound and incubated for 1 hour at room temperature. One hour later, the cells were washed with PBS, reacted with 2 μL of Alexa 594 secondary antibody, and then incubated for 1 hour at room temperature. One hour later, the cells were washed with PBS to remove non-specific binding, and the binding ability of the SMO-binding antibodies was analyzed by flow cytometry.

B1: #47 antibody (IgG form) (antibody, V domains shown)
VH: QVQLVQSGGGVVQPGSSLRLSCEASGFAIGDNALNWVRQAPGKGLEWVGYIRSNSYGGTAEYAASVKGRFTISKDESKNIAYLEMNSLRAEDTAVYYCARRAHYYDGSTYNPSWYFDLWGRGTLVTVSS
VL: EIVLTQSPSFLSASVGDRVTITCRASQDISRRLAWYQQKPGKAPKLLIYGASNLASGVPSRFTGSGSGTEFTLTISSLQPDDFATYYCQQGYSSPRTFGQGTKVDIK
**Q.** Does B1 bind?
**A.** binds

B2: #40 antibody (IgG form) (antibody, V domains shown)
VH: QVQLVQSGGGVVQPGSSLRLSCEASGFAIGDNALNWVRQAPGKGLEWVGYIRSNSYGGTAEYAASVKGRFTISRDESKNIAYLEMNSLRAEDTAVYYCARRAHYYGGSTYNPSWYFDLWGRGTPVTVSS
VL: EIVLTQSPSFLSASVGDRVTITCRASQDISRRLAWYQRKPGKAPKLLIYGASNLASGVPSRFTGSGSGTEFTLTISSLQSDDFATYYCQQGYSSPRTFGQGTKVDIK
**Q.** Does B2 bind?
**A.** binds

B3: #42 antibody (IgG form) (antibody, V domains shown)
VH: QVRLVQSGAEVKKPGASVKVSCRASGYTFASYDIHWVRQAPGQGPEWMGMINPAGGSTLYAEGFEGRLTMTRDRSMSTAYMELSSLRSEDTAVYYCARTPSQTYELDYWGQGTLVTVSS
VL: ETTLTQSPSSLSASVGDRVTITCRASQGIRNDLAWYQQKPGKAPKLLIYAASTLESGVPPRFSGSGSETDFTLTLIRLQPDDFATYYCLQSFSTPYTFGQGTQLTVL
**Q.** Does B3 bind?
**A.** binds
